Results from the RNAGym collection of RNA variant scans (doi:10.1073/pnas.2313332121).

B1: TPR t1 (parent)
chain: GACCAAUCUGCCCUCAGAGCUCGAGAACAUCUUCGGAUGCAGAGGAGGCAGGCUUCGGUGGCGCGAUAGCGCCAACGUCCUCAACCUCCAAUGCAUCCCACCACAUGAUGAUGCCUGAAGAGCCUUGGUUUUUUG

Variants of: B1
Experiment: polymerase ribozyme fitness, log enrichment relative to wild type (log ratio); higher = more active; in vitro selection for triplet polymerase activity
Procedure, shortened: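 Only genotypes with ≥10 input reads and ≥1 read per output were kept after Illumina sequencing of input and output libraries. These libraries were PCR-built, transcribed mutants of each subunit of a heterodimeric triplet polymerase ribozyme, each put through one triplicate in vitro selection round with frozen incubation at −7 °C, gel excision of extended constructs, streptavidin-bead capture and RT-PCR. Fitness is a logarithmic ratio of genotype enrichment to wild-type enrichment, from inverse-variance-weighted replicate averages, with the logarithm in base 2.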

Row | Variant | polymerase ribozyme fitness (log ratio)
1 | C11U C56U | -0.0444
2 | C11G C15U G45A C73A A83U | -1.42
3 | C11U G128C | -2.9
4 | C11U C89A U112G | -1.71
5 | C12A C49A G63U A121U U132C G135A | 1.42
6 | C11U C20G A27G C56U | -5.19
7 | C12A C53U A83C U106G G113U | -6.76
8 | C11A G71A A91G A121U | 0.674
9 | C11A G52A C70U A90G | -2.22
10 | C12A A18C A29G C72A | -2.28
11 | C11G G117C | -1.94
12 | C11G C15U C20U C70G | -3.71
13 | C11G G57A C73A C123G | 0.666
14 | C11U G71A U133G | -1.59
15 | C11A U109A | -6.59
16 | C11U C53G A91U | -1.86
17 | C11G G39A C53G | -0.759
18 | C11A U38C | -2.34
19 | C11U C49U G63A U109A G117C A119U | -7.12
20 | C11U A27G C76G C80A C85A U112G | -0.749
21 | C11U A46G G69U | -0.0646

Row | Variant | polymerase ribozyme fitness (log ratio)
22 | C11U G60A | -0.708
23 | C11G G61A | 1
24 | C11G G61C | -1.35
25 | C11U C70U | -0.753
26 | C11U C70G | -2.97
27 | C11U C101A | -1.8
28 | C11U C101G | -2.02
29 | C11A G107C G113A C124A | -6.29
30 | C12A A18C | -1.6
31 | C12A C15A C72A G110U | -4.88
32 | C11A G69A C86U | -3.51
33 | C12A C13U G61U U106A | -0.644
34 | C11A U21G A41G A121U | -0.0986
35 | C12A C53A G61U U109G G117C U125A U126C | -7.8
36 | C11A G71C G113A | -2.46
37 | C11G C94U | -0.128
38 | C11U A41C C49G U59A G61U A91C U130G | -3.24
39 | C11U C94A C102A | -3.51
40 | C11U G47C C56U U78A A100U C115U U131C | -4.41
41 | C11U C76A | -0.763
42 | C11U C76U | -0.741

Row | Variant | polymerase ribozyme fitness (log ratio)
43 | C11G A16G G60A C88U C124A | -0.731
44 | C11U C13G C56U G93C C114U A119G | -3.78
45 | C11U G117C A119U | -3.48
46 | C11G C34A G61U C62U C80G C86U G120A | -6.66
47 | C11G C99U | -2.71
48 | C11A U32C A37C | -1.07
49 | C11G A16C A37C G60U C89G C114G | -6.69
50 | C12A C40A C70G | -4.57
51 | C12A C20A G61C | -4.95
52 | C11U A74G C89G | -3.01
53 | C11G G44C C72G C88U C101U | -0.537
54 | C11A U21G G120U C123A | -0.701
55 | C11A U59A | -1.59
56 | C11U A18G C72A | -3.7
57 | C11G C15U C56U A83U | -1.12
58 | C12A C49A C88A G110U | -1.74
59 | C11U C53G C64U C101U U125A | -1.43
60 | C11G C40A C72U C101U C104U | -1.72
61 | C11U U21C G120U | 0.267
62 | C11U C22G C40U G69A | -5.5
63 | C11U C49G U92A C123G | -3.91

Row | Variant | polymerase ribozyme fitness (log ratio)
64 | C12A A37C A46C C88U | -2.57
65 | C11U G42C G44U C62U | -2.34
66 | C11G G36U G63A C98G | -6.37
67 | C11U C86U | -0.821
68 | C11G U32C G35C C97U G120C | -2.23
69 | C11G U78G C98U | -0.594
70 | C11G C15A U106A G117U G127U | -0.216
71 | C11U A18U C53U C72G C82G U96G C98U C104U U109C | -7.77
72 | C12A A105G C124U | -0.99
73 | C11A G113C | -2.93
74 | C12A C34A G45A G71C | -6.58
75 | C12A A29U C49U A74G C123A U131A | -1.45
76 | C11U C62U | -0.515
77 | C11G U14A A46U | -1.11
78 | C11A U38G C56U C86G U112C | -2.57
79 | C11G C20U | -0.656
80 | C11G C12U A50G G71A U133G | -4.01
81 | C11U A43C G69C G77U U112G U134G | -5.15
82 | C11G G17A C124U | -3.84
83 | C11G G35U C82A A105C C123A C124A | -5.28
